Results published in the supplement of paper PMC5998384.

Tests used:
[1] = test system: HeLa Kyoto; assay: solubility change mitosis vs G1/S (difference of NP-40 vs SDS log2 ratios) (log2 ratio difference); higher = more soluble in mitosis
[2] = test system: HeLa Kyoto; assay: solubility in G1/S (NP-40 vs SDS abundance) (log2 ratio); higher = more soluble; conditions: cell cycle stage: G1/S
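Throughout, for solubility change mitosis vs G1/S (difference of NP-40 vs SDS log2 ratios): synchronized HeLa Kyoto cells (double thymidine block for G1/S, nocodazole release for mitosis), protein amounts in NP-40 versus SDS lysates quantified by mass spectrometry, three biological replicates.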
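Throughout, for solubility in G1/S (NP-40 vs SDS abundance): HeLa Kyoto cells arrested at G1/S by double thymidine block, proteins quantified by TMT10plex mass spectrometry in mild NP-40 versus SDS extracts, three biological replicates.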

Sequence | solubility change mitosis (log2) [1] | solubility in G1/S (log2) [2]
MQSESGIVPDFEVGEEFHEEPKTYYELKSQPLKSSSSAEHPGASKPPISSSSMTSRILLRQQLMREQMQEQERREQQQKLQAAQFMQQRVPVSQTPAINVSVPTTLPSATQVPMEVLKVQTHLENPTKYHIQQAQRQQVKQYLSTTLANKHANQVLSLPCPNQPGDHVMPPVPGSSAPNSPMAMLTLNSNCEKEGFYKFEEQNRAESECPGMNTHSRASCMQMDDVIDDIISLESSYNEEILGLMDPALQMANTLPVSGNLIDLYGNQGLPPPGLTISNSCPANLPNIKRELTACIFPTESEARALAKERQKKDNHNLIERRRRFNINDRIKELGTLIPKSNDPDMRWNKGTILKASVDYIRKLQREQQRAKELENRQKKLEHANRHLLLRIQELEMQARAHGLSLIPSTGLCSPDLVNRIIKQEPVLENCSQDLLQHHADLTCTTTLDLTDGTITFNNNLGTGTEANQAYSVPTKMGSKLEDILMDDTLSPVGVTDPLLSSVSPGASKTSSRRSSMSMEETEHTC [MITF] | 0.021 | 0.326
MSGSHTPACGPFSALTPSIWPQEILAKYTQKEESAEQPEFYYDEFGFRVYKEEGDEPGSSLLANSPLMEDAPQRLRWQAHLEFTHNHDVGDLTWDKIAVSLPRSEKLRSLVLAGIPHGMRPQLWMRLSGALQKKRNSELSYREIVKNSSNDETIAAKQIEKDLLRTMPSNACFASMGSIGVPRLRRVLRALAWLYPEIGYCQGTGMVAACLLLFLEEEDAFWMMSAIIEDLLPASYFSTTLLGVQTDQRVLRHLIVQYLPRLDKLLQEHDIELSLITLHWFLTAFASVVDIKLLLRIWDLFFYEGSRVLFQLTLGMLHLKEEELIQSENSASIFNTLSDIPSQMEDAELLLGVAMRLAGSLTDVAVETQRRKHLAYLIADQGQLLGAGTLTNLSQVVRRRTQRRKSTITALLFGEDDLEALKAKNIKQTELVADLREAILRVARHFQCTDPKNCSVELTPDYSMESHQRDHENYVACSRSHRRRAKALLDFERHDDDELGFRKNDIITIVSQKDEHCWVGELNGLRGWFPAKFVEVLDERSKEYSIAGDDSVTEGVTDLVRGTLCPALKALFEHGLKKPSLLGGACHPWLFIEEAAGREVERDFASVYSRLVLCKTFRLDEDGKVLTPEELLYRAVQSVNVTHDAVHAQMDVKLRSLICVGLNEQVLHLWLEVLCSSLPTVEKWYQPWSFLRSPGWVQIKCELRVLCCFAFSLSQDWELPAKREAQQPLKEGVRDMLVKHHLFSWDVDG [SGSM3] | 0.011 | -0.177
MAGQEDPVQREIHQDWANREYIEIITSSIKKIADFLNSFDMSCRSRLATLNEKLTALERRIEYIEARVTKGETLT [BRK1] | 0.228 | -0.551
MAAVKASTSKATRPWYSHPVYARYWQHYHQAMAWMQSHHNAYRKAVESCFNLPWYLPSALLPQSSYDNEAAYPQSFYDHHVAWQDYPCSSSHFRRSGQHPRYSSRIQASTKEDQALSKEEEMETESDAEVECDLSNMEITEELRQYFAETERHREERRRQQQLDAERLDSYVNADHDLYCNTRRSVEAPTERPGERRQAEMKRLYGDSAAKIQAMEAAVQLSFDKHCDRKQPKYWPVIPLKF [GEMIN8] | 0.219 | 0.511
MNGFTPDEMSRGGDAAAAVAAVVAAAAAAASAGNGTGAGTGAEVPGAGAVSAAGPPGAAGPGPGQLCCLREDGERCGRAAGNASFSKRIQKSISQKKVKIELDKSARHLYICDYHKNLIQSVRNRRKRKGSDDDGGDSPVQDIDTPEVDLYQLQVNTLRRYKRHFKLPTRPGLNKAQLVEIVGCHFRSIPVNEKDTLTYFIYSVKNDKNKSDLKVDSGVH [SAP30] | 0.267 | 0.247
MEEIKPASASCVSKEKPSKVSDLISRFEGGSSLSNYSDLKKESAVNLNAPRTPGRHGLTTTPQQKLLSQHLPQRQGNDTDKTQGAQTCVANGVMAAQNQMECEEEKAATLSSDTSIQASEPLLDTHIVNGERDETATAPASPTTDSCDGNASDSSYRTPGIGPVLPLEERGAETETKVQERENGESPLELEQLDQHHEMKETNEQKLHKIANELLLTERAYVNRLDLLDQVFYCKLLEEANRGSFPAEMVNKIFSNISSINAFHSKFLLPELEKRMQEWETTPRIGDILQKLAPFLKMYGEYVKGFDNAMELVKNMTERIPQFKSVVEEIQKQKICGSLTLQHHMLEPVQRIPRYEMLLKDYLRKLPPDSLDWNDAKKSLEIISTAASHSNSAIRKMENLKKLLEIYEMLGEEEDIVNPSNELIKEGQILKLAARNTSAQERYLFLFNNMLLYCVPKFSLVGSKFTVRTRVGIDGMKIVETQNEEYPHTFQVSGKERTLELQASSAQDKEEWIKALQETIDAFHQRHETFRNAIAKDNDIHSEVSTAELGKRAPRWIRDNEVTMCMKCKEPFNALTRRRHHCRACGYVVCWKCSDYKAQLEYDGGKLSKVCKDCYQIISGFTDSEEKKRKGILEIESAEVSGNSVVCSFLQYMEKSKPWQKAWCVIPKQDPLVLYMYGAPQDVRAQATIPLLGYVVDEMPRSADLPHSFKLTQSKSVHSFAADSEELKQKWLKVILLAVTGETPGGPNEHPATLDDHPEPKKKSEC [FGD4] | -0.00729 | -0.163
MELGKGKLLRTGLNALHQAVHPIHGLAWTDGNQVVLTDLRLHSGEVKFGDSKVIGQFECVCGLSWAPPVADDTPVLLAVQHEKHVTVWQLCPSPMESSKWLTSQTCEIRGSLPILPQGCVWHPKCAILTVLTAQDVSIFPNVHSDDSQVKADINTQGRIHCACWTQDGLRLVVAVGSSLHSYIWDSAQKTLHRCSSCLVFDVDSHVCSITATVDSQVAIATELPLDKICGLNASETFNIPPNSKDMTPYALPVIGEVRSMDKEATDSETNSEVSVSSSYLEPLDLTHIHFNQHKSEGNSLICLRKKDYLTGTGQDSSHLVLVTFKKAVTMTRKVTIPGILVPDLIAFNLKAHVVAVASNTCNIILIYSVIPSSVPNIQQIRLENTERPKGICFLTDQLLLILVGKQKLTDTTFLPSSKSDQYAISLIVREIMLEEEPSITSGESQTTYSTFSAPLNKANRKKLIESLSPDFCHQNKGLLLTVNTSSQNGRPGRTLIKEIQSPLSSICDGSIALDAEPVTQPASLPRHSSTPDHTSTLEPPRLPQRKNLQSEKETYQLSKEVEILSRNLVEMQRCLSELTNRLHNGKKSSSVYPLSQDLPYVHIIYQKPYYLGPVVEKRAVLLCDGKLRLSTVQQTFGLSLIEMLHDSHWILLSADSEGFIPLTFTATQEIIIRDGSLSRSDVFRDSFSHSPGAVSSLKVFTGLAAPSLDTTGCCNHVDGMA [C2ORF44] | -0.0919 | -0.00732
MRVDSSADPTMSQEQGPGSSTPPSSPTLLDALLQNLYDFGGTEGETEQKKIIKKRENKKRDVMASAALAAEPSPLPGSLIRGQRKSASSFFKELREERHCAPSGTPTGPEILAAAVPPSSLKNNREQVEVVEFHSNKKRKLTPDHNKNTKQANPSVLERDVDTQEFNLEKARLEVHRFGITGYGKGKERILEQERAIMLGAKPPKKSYVNYKVLQEQIKEKKAAKEEEKRLAQETDIFKKKKRKGQEDRKSKKKSAPSILSNGRIGQVGKFKNGTLILSPVDIKKINSSRVAK [C1ORF131] | 0.969 | -1.24
MGSILSRRIAGVEDIDIQANSAYRYPPKSGNYFASHFFMGGEKFDTPHPEGYLFGENMDLNFLGSRPVQFPYVTPAPHEPVKTLRSLVNIRKDSLRLVRYKDDADSPTEDGDKPRVLYSLEFTFDADARVAITIYCQASEEFLNGRAVYSPKSPSLQSETVHYKRGVSQQFSLPSFKIDFSEWKDDELNFDLDRGVFPVVIQAVVDEGDVVEVTGHAHVLLAAFEKHMDGSFSVKPLKQKQIVDRVSYLLQEIYGIENKNNQETKPSDDENSDNSNECVVCLSDLRDTLILPCRHLCLCTSCADTLRYQANNCPICRLPFRALLQIRAVRKKPGALSPVSFSPVLAQSLEHDEHSCPFKKSKPHPASLASKKPKRETNSDSVPPGYEPISLLEALNGLRAVSPAIPSAPLYEEITYSGISDGLSQASCPLAAIDHILDSSRQKGRPQSKAPDSTLRSPSSPIHEEDEEKLSEDVDAPPPLGGAELALRESSSPESFITEEVDESSSPQQGTRAASIENVLQDSSPEHCGRGPPADIYLPALGPDSCSVGIDE [MGRN1] | 0.156 | -0.00834
MNSGRPETMENLPALYTIFQGEVAMVTDYGAFIKIPGCRKQGLVHRTHMSSCRVDKPSEIVDVGDKVWVKLIGREMKNDRIKVSLSMKVVNQGTGKDLDPNNVIIEQEERRRRSFQDYTGQKITLEAVLNTTCKKCGCKGHFAKDCFMQPGGTKYSLIPDEEEEKEEAKSAEFEKPDPTRNPSRKRKKEKKKKKHRDRKSSDSDSSDSESDTGKRARHTSKDSKAAKKKKKKKKHKKKHKE [ZCCHC17] | 0.661 | -1.32
MDEEPERTKRWEGGYERTWEILKEDESGSLKATIEDILFKAKRKRVFEHHGQVRLGMMRHLYVVVDGSRTMEDQDLKPNRLTCTLKLLEYFVEEYFDQNPISQIGIIVTKSKRAEKLTELSGNPRKHITSLKEAVDMTCHGEPSLYNSLSMAMQTLKHMPGHTSREVLIIFSSLTTCDPSNIYDLIKTLKAAKIRVSVIGLSAEVRVCTVLARETGGTYHVILDESHYKELLTHHLSPPPASSSSECSLIRMGFPQHTIASLSDQDAKPSFSMAHLDGNTEPGLTLGGYFCPQCRAKYCELPVECKICGLTLVSAPHLARSYHHLFPLDAFQEIPLEEYNGERFCYGCQGELKDQHVYVCAVCQNVFCVDCDVFVHDSLHCCPGCIHKIPAPSGV [GTF2H2C] | 0.181 | -0.398
MLWLALGPFPAMENQVLVIRIKIPNSGAVDWTVHSGPQLLFRDVLDVIGQVLPEATTTAFEYEDEDGDRITVRSDEEMKAMLSYYYSTVMEQQVNGQLIEPLQIFPRACKPPGERNIHGLKVNTRAGPSQHSSPAVSDSLPSNSLKKSSAELKKILANGQMNEQDIRYRDTLGHGNGGTVYKAYHVPSGKILAVKVILLDITLELQKQIMSELEILYKCDSSYIIGFYGAFFVENRISICTEFMDGGSLDVYRKMPEHVLGRIAVAVVKGLTYLWSLKILHRDVKPSNMLVNTRGQVKLCDFGVSTQLVNSIAKTYVGTNAYMAPERISGEQYGIHSDVWSLGISFMELALGRFPYPQIQKNQGSLMPLQLLQCIVDEDSPVLPVGEFSEPFVHFITQCMRKQPKERPAPEELMGHPFIVQFNDGNAAVVSMWVCRALEERRSQQGPP [MAP2K5] | -0.109 | 0.128
